Values quoted from earlier work, collected in PMC5382571.
Like-named read-outs stand apart in the source and are kept apart here.

Columns and labels:
PCNA (Homo sapiens) [1] = molecular target: PCNA (Homo sapiens) (UniProt P12004)
PCNA (Homo sapiens) [2] = molecular target: PCNA (Homo sapiens) (UniProt P12004); remark: listed apart in the source

Sequence of UniProt P12004 (P12004 whole entry): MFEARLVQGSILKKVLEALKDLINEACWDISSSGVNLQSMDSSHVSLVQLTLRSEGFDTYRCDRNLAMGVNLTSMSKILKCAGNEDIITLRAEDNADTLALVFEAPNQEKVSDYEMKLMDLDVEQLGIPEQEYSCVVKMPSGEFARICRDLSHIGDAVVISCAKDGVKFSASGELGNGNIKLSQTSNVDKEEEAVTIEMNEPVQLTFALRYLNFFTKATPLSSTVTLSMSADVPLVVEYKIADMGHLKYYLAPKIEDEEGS

Row | Kd (PCNA (Homo sapiens) [1]) | Kd (PCNA (Homo sapiens) [2]) | Substance
1 | < 10 nM |  | DNA polymerase delta (from UniProt P28340)
2 |  | 0.2 nM | RFC (from UniProt P35251)
